Data published in article PMC9369050.
Values joined by “and” are separate entries in the source; they are usually repeats but may differ in a detail not shown here. Equal values may be shown once.

Columns and labels:
[1] = target: Bacterial His-tagged Reg-1α (human regenerating islet-derived protein 1-alpha) (human) (UniProt P05451); assay: cross-linking; 10 mM EDC/NHS, up to 30 min (0, 15, 30 min); Reg-1α with inactive calpain-2 at molar ratio 2/1, or Reg-1α alone; 50 mM Hepes pH 7.3, 100 mM NaCl, 1 mM DTT, 1 mM EGTA; SDS-PAGE 4-15% and immunodetection with anti-Reg-1α and anti-calpain-2
[2] = target: Bacterial His-tagged Reg-1α (human regenerating islet-derived protein 1-alpha) (human) (UniProt P05451); assay: SDS-PAGE with immunoblot, no cross-linker; bands of oligomers that persist in SDS-PAGE, detected with anti-Reg-1α (Figure 1C; time 0 of Figure 2A)
[3] = target: Calpain-2-cleaved Reg-1α (Reg-1αΔN1-4) (human); assay: as above

stoichiometry N [1]	stoichiometry N [2]	stoichiometry N [3]	Substance
4	2 and 3	–	Bacterial His-tagged Reg-1α (human regenerating islet-derived protein 1-alpha) (from UniProt P05451 23-166) (natural protein)
–	–	2	Calpain-2-cleaved Reg-1α (Reg-1αΔN1-4) (domain or fragment)
